Substrate in the series: CCCCCCCCCCCCCCCC(=O)Oc1ccc([N+](=O)[O-])cc1
Briefly: purified protein. Format: biochemical, Proteus mirabilis. The settings on record: soluble free enzyme, 0.1 M NaH2PO4 pH 7.0, 25 °C, 1 nM enzyme, pNPP 0-2.25 mM, pNPP stock in MeCN:Triton X-100 1:1.

Data on one protein can be found in PMC6598307, “Directed evolution of a genetically encoded immobilized lipase for the efficient production of biodiesel from waste cooking oil” (Biotechnology for Biofuels, 2019).

What is called Km is the concentration of substrate that gives half-maximal velocity. What is called kcat is the number of substrate molecules converted per active site and unit of time at saturation. A word on the kcat/Km: it is the second-order rate constant that governs catalysis at low substrate concentration.

B1: Proteus mirabilis lipase (PML), soluble (Proteus mirabilis HI4320) (protein)
chain: MSTKYPIVLVHGLAGFNEIVGFPYFYGIADALRQDGHQVFTASLSAFNSNEVRGKQLWQFVQTLLQETQAKKVNFIGHSQGPLACRYVAANYPDSVASVTSINGVNHGSEIADLYRRIMRKDSIPEYIVEKVLNAFGTIISTFSGHRGDPQDAIAALESLTTEQVTEFNNKYPQALPKTPGGEGDEIVNGVHYYCFGSYIQGLIAGEKGNLLDPTHAAMRVLNTFFTEKQNDGLVGRSSMRLGKLIKDDYAQDHIDMVNQVAGLVGYNEDIVAIYTQHAKYLASKQL
notes: full-length PML gene in pET28b (NdeI/XhoI), N-terminal His-tag; no signal peptide needed; E. coli BL21(DE3)
B1: the Michaelis constant (Km) was found to be 1770 ± 330 µM, the turnover number (kcat) stood at 112 ± 12 s⁻¹ and the kcat/Km came out at 63200 ± 210 M⁻¹ s⁻¹.
